Source: patent US20210388081A1 (Memorial Sloan Kettering, published 2021)

What was measured:
SLAMF9 protein = SLAMF9 protein (UniProt Q96A28 19-236, limits assumed); experiment: phage clone on SLAMF9 protein
[1] = target: T1, FcRL1, overexpressed on 3T3 cells (UniProt Q96LA6 17-429, limits assumed); experiment: phage clone on 3T3-FcRL1 cells
T1 construct: whole, on cells
T1 sequence (looked up): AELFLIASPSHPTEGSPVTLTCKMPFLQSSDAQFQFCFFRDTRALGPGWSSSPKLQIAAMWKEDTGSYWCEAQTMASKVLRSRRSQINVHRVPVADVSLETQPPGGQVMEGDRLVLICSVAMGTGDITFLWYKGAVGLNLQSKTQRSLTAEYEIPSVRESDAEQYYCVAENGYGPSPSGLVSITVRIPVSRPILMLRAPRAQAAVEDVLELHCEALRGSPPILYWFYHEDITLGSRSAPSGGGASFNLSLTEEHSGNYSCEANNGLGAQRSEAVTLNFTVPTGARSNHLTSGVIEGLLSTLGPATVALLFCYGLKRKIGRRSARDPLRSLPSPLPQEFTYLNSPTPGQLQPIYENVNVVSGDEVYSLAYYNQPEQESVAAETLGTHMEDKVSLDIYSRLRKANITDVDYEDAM

[2] = target: T2, FcRL6, overexpressed on 3T3 cells (UniProt Q6DN72 20-434, limits assumed); experiment: phage clone on 3T3-FcRL6 cells
T2 construct: whole, on cells
T2 sequence (looked up): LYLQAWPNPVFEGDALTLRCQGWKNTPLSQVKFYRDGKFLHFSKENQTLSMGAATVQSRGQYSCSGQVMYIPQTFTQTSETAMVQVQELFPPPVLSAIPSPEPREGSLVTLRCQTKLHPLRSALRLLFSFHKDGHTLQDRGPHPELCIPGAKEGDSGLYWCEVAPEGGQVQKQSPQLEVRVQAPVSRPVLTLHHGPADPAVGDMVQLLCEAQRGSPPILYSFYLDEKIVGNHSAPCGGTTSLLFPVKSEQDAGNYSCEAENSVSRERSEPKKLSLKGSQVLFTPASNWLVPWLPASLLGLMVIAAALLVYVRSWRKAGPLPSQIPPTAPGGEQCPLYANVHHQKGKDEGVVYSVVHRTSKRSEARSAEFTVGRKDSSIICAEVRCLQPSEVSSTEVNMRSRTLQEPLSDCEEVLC

Measured: binding result

SLAMF9 protein, sequence (Q96A28 19-236 limits assumed): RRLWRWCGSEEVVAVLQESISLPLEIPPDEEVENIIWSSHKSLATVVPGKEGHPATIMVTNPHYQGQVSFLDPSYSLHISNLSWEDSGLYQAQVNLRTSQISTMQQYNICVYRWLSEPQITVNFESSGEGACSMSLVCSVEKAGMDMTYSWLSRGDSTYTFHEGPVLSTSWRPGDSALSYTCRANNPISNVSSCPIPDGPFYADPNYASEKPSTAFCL

B1: ET200-029 (scFv)
scFv: QAVLTQPPSVSVAPGKTARVTCGGNNIGSESVHWYQQKPGQAPVLVIYYDTDRPSGIPERFSGSHSGTTATLTISRVEAGDEADYYCQVWDSSRDHVVFGGGTKLTVLGSRGGGGSGGGGSGGGGSLEMAQVQLVQSGGGVVQPGRSLRLSCAASGFTFSSYAMHWVRQAPGKGLEWVAVISYDGSNKYYADSVKGLFTISRDNSKNTLYLQMNSLRAEDTAVYYCARSYFTSGFYDYWGQGTLVTVSSTSGQAGQHHHHHHGAYPYDVPDYAS
notes: screened as phage clone; entry is VL-linker-VH-His tag-HA tag
no binding: SLAMF9 protein | [1] | [2]

B2: ET200-026 (scFv)
scFv: NFMLTQPHSVSESPGKTVTISCTGSSGSIASNYVQWYQQRPGSAPTTVIYEDNQRPSGVPDRFSGSIDSSSNSASLTISGLKTEDEADYYCQSYDSSNWVFGGGTKLTVLGSRGGGGSGGGGSGGGGSLEMAEVQLVQSGAEVKKPGSSVKVSCKASGGTFSSYAISWVRQAPGQGLEWMGGIIPIFGTANYAQKFQGRVTITADESTSTAYMELSSLRSEDTAVYYCARNNHYYNDYWGQGTLVTVSSTSGQAGQHHHHHHGAYPYDVPDYAS
notes: as for B1
no binding: SLAMF9 protein | [1] | [2]

B3: ET200-035 (scFv)
scFv: NFMLTQPHSVSESPGKTVTISCTRSSGSIASNYVQWYQQRPGSAPTTVIYEDNQRPSGVPDRFSGSIDSSSNSASLTISGLKTEDEADYYCQSYDSTNWVFGGGTKLTVLGSRGGGGSGGGGSGGGGSLEMAQVQLVQSGAEVKKPGSSVKVSCKASGGTFSSYAISWVRQAPGQGLEWMGGIIPIFGTANYAQKFQGRVTITADESTSTAYMELSSLRSEDTAVYYCARYNYYFNDYWGQGTLVTVSSTSGQAGQHHHHHHGAYPYDVPDYAS
notes: as for B1
no binding: SLAMF9 protein | [1] | [2]

B4: ET200-033 (scFv)
scFv: NFMLTQPHSVSESPGKTVTISCTGSSGSIASNYVQWYQQRPGSAPTTVIYEDNQRPSGVPDRFSGSIDSSSNSASLTISGLKTEDEADYYCQSYDSSNHWVFGGGTKLTVLGSRGGGGSGGGGSGGGGSLEMAQVQLQQWGAGLLKPSETLSLTCAVYGGSFSGYYWSWIRQPPGKGLEWIGEITHSGRSNYNPSLKSRVTISVDTSKNQFSLKLSSVTAADTAVYYCARSSIMSDYWGQGTLVTVSSTSGQAGQHHHHHHGAYPYDVPDYAS
notes: as for B1
no binding: SLAMF9 protein | [1] | [2]

B5: ET200-031 (scFv)
scFv: SYVLTQPPSVSVAPGKTARITCGGNNIGSKSVHWYQQKPGQAPVLVIYYDSDRPSGIPERFSGSNSGNTATLTISRVEAGDEADYYCQVWDSSSDYVFGTGTKVTVLGSRGGGGSGGGGSGGGGSLEMAEVQLVETGGGLVKPGGSLRLSCAASGFTVSDYYMSWIRQAPGKGLEWISYISGSGNSIYYADSVKGRFTISRDNAKNSLDLQMTSLRAEDTAVYYCARSTKFDYWGQGTLVTVSSTSGQAGQHHHHHHGAYPYDVPDYAS
notes: screened as phage clone; entry is VL-linker-VH-His tag-HA tag; also called ET200-31
no binding: SLAMF9 protein | [1] | [2]

B6: ET200-030 (scFv)
scFv: QSVVTQPPSVSGAPGQRVTISCTGSSSNIGAGYDVNWYQQFPGTAPKLLIYGNSNRPSGVPDRFSGSKSGTSASLAITGLQAEDEADYYCQSYDSSLSGSYVFGTGTKVTVLGSRGGGGSGGGGSGGGGSLEMAQMQLVQSGAEVKKPGASVKVSCKASGYTLTELSMHWVRQAPGKGLEWMGGFDPEDGETIYAQKFQGRVTMTEDTSTDTAYMELSSLRSEDTAVYYCARMSSMYYDWGQGTLVTVSSTSGQAGQHHHHHHGAYPYDVPDYAS
notes: as for B1
no binding: SLAMF9 protein | [1] | [2]

B7: ET200-032 (scFv)
scFv: LPVLTQPPSASGTPGQRVTISCSGSSSNVGSYTVNWYRQLPGTAPTLLIYNNNQRPSGVPDRFSDSKSGTSASLTISGLQPEDEADYYCAAWDDRLGGYVFGTGTKVTVLGSRGGGGSGGGGSGGGGSLEMAEVQLVQSGAEVKKPGESLKISCKGSGYSFTNYWIGWVRQMPGKGLEWMGIIYPGDSDTRYSPSFQGQVTISADKSISTAYLQWSSLKASDTAMYYCARSTGSSHMSDEWGQGTLVTVSSTSGQAGQHHHHHHGAYPYDVPDYAS
notes: as for B1
no binding: SLAMF9 protein | [1] | [2]

B8: ET200-034 (scFv)
scFv: QSVLTQPPSVSGAPGQRVTISCTGSTSNIGAGYDVHWYQQLPGTAPKLLINNNRNRPSGVPDRFSGSKSGTSATLGITGLQTGDEADYYCGTWDGSLTGAVFGGGTKLTVLGSRGGGGSGGGGSGGGGSLEMAEVQLVQSGAEVKKPGSSVKVSCKASGGTFSSYAISWVRQAPGQGLEWMGGIIPIFGTANYAQKFQGRVTITADESTSTAYMELSSLRSEDTAVYYCARGSALDHYDRWGQGTLVTVSSTSGQAGQHHHHHHGAYPYDVPDYAS
notes: as for B1
no binding: SLAMF9 protein | [1] | [2]

B9: ET200-040 (scFv)
scFv: QSVLTQPPSVSGAPGQRVTISCTGSSSNIGAGYDVHWYQQLPGTAPKLLIYGNSNRPSGVPDRFSGSKSGTSASLAITGLQAEDEADYYCQSYDSSLSGYVFGTGTKVTVLGSRGGGGSGGGGSGGGGSLEMAQVQLVQSGAEVKKPGASVKVSCKVSGYTLTELSMHWVRQAPGKGLEWMGGFDPEDGETIYAQKFQGRVTMTEDTSTDTAYMELSSLRSEDTAVYYCARYSGVYYDWGQGTLVTVSSTSGQAGQHHHHHHGAYPYDVPDYAS
notes: as for B1
no binding: SLAMF9 protein | [1] | [2]

B10: ET200-041 (scFv)
scFv: NFMLTQPHSVSGSPGKTVTISCTGSSGSIADNFVQWYQQRPGGVPTTVIFNDDERPSGVPDRFSGSIDTSSNSASLTISGLKTEDEADYYCQSYDNNNRGVFGGGTKLTVLGSRGGGGSGGGGSGGGGSLEMAQVQLVQSGAEVKKPGSSVKVSCKASGGTFSSYAISWVRQAPGQGLEWMGWMNPNSGNTGYAQKFQGRVTMTRNTSISTAYMELSNLRSEDTAVYYCARYYSYGYDWGQGTLVTVSSTSGQAGQHHHHHHGAYPYDVPDYAS
notes: as for B1
no binding: SLAMF9 protein | [1] | [2]

B11: ET200-027 (scFv)
scFv: QSVLTQPPSVSGAPGQGVTIPCTGSSSNIGAGYDVHWYQQLPGTAPKLLIYGNNNRPSGVPDRFSGSRSGSSASLAITGLQAEDEADYYCQSYDSSLSDVVFGGGTKVTVLGSRGGGGSGGGGSGGGGSLEMAEVQLVQSGAEVKKPGATVKISCKVSGYTFTDYYMHWVQQAPGKGLEWMGLVDPEDGETIYAEKFQGRVTITADTSTDTAYMELSSLRSEDTAVYYCARYWSYSFDYLYMPEGNDWWGQGTLVTVSSTSGQAGQHHHHHHGAYPYDVPDYAS
notes: as for B1
no binding: SLAMF9 protein | [1] | [2]

B12: ET200-028 (scFv)
scFv: QSVLTQPPAASGTPGQRVTISCSGGVSNIGSGALNWYQQLPGTAPKLLIYSYNQRPSGVSDRFSGSRSATSASLAISGLQSEDEADYYCATWDDSVNGWVFGGGTKLTVLGSRGGGGSGGGGSGGGGSLEMAQVQLVQSGAEVKKPGDSVKVSCKPSGYNFLNYGINWVRQAPGQGLEWMGWISTYTGNTNYAQKLQGRVTFTTDTSTSTAYMEMRSLRSDDTAVYYCARDLYYYEGVDYWGQGTLVTVSSTSGQAGQHHHHHHGAYPYDVPDYAS
notes: as for B1
no binding: SLAMF9 protein | [1] | [2]

B13: ET200-038 (scFv)
scFv: QSVLTQPPSVSGAPGQRVTISCTGSSSNIGAGFDVHWYQLLPGTAPKLLIYANSNRPSGVPDRFSGSKSGTSASLAITGLLAEDEADYYCQSYDSSLSGVVFGGGTKLTVLGSRGGGGSGGGGSGGGGSLEMAQVQLVQSGAEVKKPGSSVKVSCKASGGTFSSYAISWVRQAPGQGLEWMGGIIPIFGTANYAQKFQGRVTITADESTSTAYMELSSLRSEDTAVYYCARGASFDRHDNWGQGTLVTVSSTSGQAGQHHHHHHGAYPYDVPDYAS
notes: as for B1
no binding: SLAMF9 protein | [1] | [2]

B14: ET200-002 (scFv)
scFv: NFMLTQPHSVSESPGKTVTISCTRSSGSIASNYVQWYQQRPGSAPTTVIYEDNQRPSGVPDRFSGSIDSSSNSASLTISGLKTEDEADYYCQSYDSSNSVVFGGGTKLTVLGSRGGGGSGGGGSGGGGSLEMAQVQLVQSGTEVKKPGASVRVACKASGYPFNKYDINWVRQAPGQGLEWMGGIIPIFRTTNYAQKFQGRVTITADESTSTAYMELSSLRSEDTAVYYCAREWFYWDIWGQGTLVTVSSTSGQAGQHHHHHHGAYPYDVPDYAS
notes: as for B1
no binding: SLAMF9 protein | [1] | [2]
